Molecular target: wild-type FtrA from Brucella abortus 2308 (Brucella abortus 2308)
Experiment: SEC

wild-type FtrA from Brucella abortus 2308 (natural protein)
stoichiometry N: 2

— paper PMC7484176
